Data taken from the DeepSol protein solubility set.

Test: soluble on expression in E. coli; label from the status in PepcDB or PDB records

Sequence: MHHHHHHSSGRENLYFQGSTKGDINQYYTLENTIGRGSWGEVKIAVQKGTRIRRAAKKIPKYFVEDVDRFKQEIEIMKSLDHPNIIRLYETFEDNTDIYLVMELCTGGELFERVVHKRVFRESDAARIMKDVLSAVAYCHKLNVAHRDLKPENFLFLTDSPDSPLKLIDFGLAARFKPGKMMRTKVGTPYYVSPQVLEGLYGPECDEWSAGVMMYVLLCGYPPFSAPTDSEVMLKIREGTFTFPEKDWLNVSPQAESLIRRLLTKSPKQRITSLQALEHEWFEKQLSSSPRNLL
- soluble on expression in E. coli: soluble

Sequence: MSKSALDPVEFLKGALEIPSPSGKERAVAEYLAEGMQKLGLKGFVDEADNARGQVGEGPVQVVLLGHIDTVPGQIPVRLEGGRLFGRGAVDAKGPFVAMIFAAAGLSEEARRRLTVHLVGATEEEAPSSKGARFVAPRLKPHYAVIGEPSGWEGITLGYKGRLLVKARREKDHFHSAHHEPNAAEELISYFVAIKAWAEAMNVGQRPFDQVQYTLRDFRVHPAELRQVAEMFFDLRLPPRLPPEEAIRHLTAYAPPTIELEFFGREVPYQGPKDTPLTRAFRQAIRKAGGRPVFKLKTGTSDMNVLAPHWPVPMVAYGPGDSTLDHTPYEHVEVAEFLKGIEVLRGALEALAQTHAGEKEG
- soluble on expression in E. coli: soluble

Sequence: HDTILFFSNKGKVYRAKGYEIPEYGRTAKGIPIINLLEVEKGEWINAIIPVTE
- soluble on expression in E. coli: not soluble

Sequence: GPGSMHFPSIVFRRHGGRQWMQQQSRDPFVLEARRRGYVARSAFKLLEMDDKFTLFSRGNTRVVVDIGCSPGSWLQVIRERCGDKCAVFGVDVLRVASTVTGAVCIQGDFTNPAVREELLARMVTVRAAGVVDVVTSDMCLNRGTGSTSDRQKQEELNRSALAFALEQLVPGGNFVCKVLGSPTAYEELRRDTCRWFVRTDICKPSSSRLTSDEAFMVCRGKREIPRDRSGGCDGTYGGRFGLDDWPGQLRGSPRRRKP
- soluble on expression in E. coli: not soluble

Sequence: MSLNANVVIAGPGTGKTTSISQKYLELVQSGVDPNDILCITFTNKAAENMRSRIIKALERSGTQIDLSVINVYTFHSFANSAIRRYGYRGIVNQNFLRKIIFDYLIRNSVFNYEREYLISRIVPQLENIIRYLGSFGIDRIENPEETAASLREIFKKRREEKKIKEDLEEITAIFIHLSKIMDEYRNAKEARGVIDYNDMIIKFLELEKKPHFKYVLVDELQDASDLQARLIKSVADDIYAVGDRKQAIFGFQGGGFGNFSNHFPDAHVNYLLTDHRNSEAVLNYAREFFLKNTKYPDQYRTELDQLKASKARGGSVEVVSGEEEAVLDLLKRFPEGKVGILARRNDQVIKISEILDSNGMRYASSALSAASDRAKKDVIAFLKMIIYGDMQSVIDALFTPFSGLQISEAYDIKESLISGNTSLQNYDLLNNLRRTYSAPGINGLIDMFEKLIIPIALAFDQRYFLTVERIYKNLREYLDFYGNEDRSDLINYLEICDDEVQEIDADERISVLTVHKAKGLEFDHVIYLPKAKKDEKMSAVDLVAEQMIRLKTEGHHHHHH
- soluble on expression in E. coli: soluble

Sequence: MSLSKFVLGGLWPETGSLAYLAPPELAAEKLAVKDINDAGGVLGNKITTVDADTSDADHADQNTSAAQSVLSKNPSFIIGPASSSVVKNTYKSITSQNIPMLSMGATSASFSGLSDYFFRTVAPDTVQGAVMGNLIAQDGVQKLAIAVFNDEYGTGLRDTIVKTASAAGVDIIYGEKDTFDPTETNFSSIATAIKASNPDATLVIAFDQTKPLLKALASAGVNTKKLYFVDGNTSDYSSELDAGLLEGSKGTIPGINPSDDFVKRLESTGVDLKNTTTYGAETYDGIILAALAAQKGGSADGKTIQANMAAVSGSTKGEKCDSYKACVALLKDGKEIQYKGQTSIGAFNDAHDPSSASIGVYKYDADNKPVFDHSQEGSVPKAEGHHHHHH
- soluble on expression in E. coli: soluble

Sequence: MGKPTGFMEYKRETPPKKDPFERSKNWQEFTLLMPESALRQQGARCMDCGVPFCQTGTSMDGSGEIGCPVYNLIPEWNDLVYRGHWKEALERLHKTNNFPEFTGRVCPAPCEGSCTVAISDDAVAIKSMEFHIVERGFQEGWIVPNPPRSRTGKKVAVVGSGPAGLAAAAQLNKAGHWVTVFEREDRIGGLLTYGIPDVKLPYHVVERRINLLKEEGIEFRTNVEIGKDVSAKQLKDDFDAVVLCTGATKPRDVNVKGRELKGIHFAMDFLTANTKSLLNSNHQDGNYISAKGKHVVVIGGGDTGADCITTSVRHGAKSITQFDINREKSNERPDNNPWPLFPIVHTVEDGHKEAAAVYGKDPRAYQVMTTKFVGDAEGHVKEIHTISVETTVHPDGSKTRVEIPGTEKVWPADLVFLAVGFTGPEEQLVRELELETDTRSNIKAEYGKYETSLEGVFAAGDNRRGQSLVVWAIHEGREAARECDKYLMGASNLPLEHHHHHH
- soluble on expression in E. coli: soluble

Sequence: MTSVLDPDRALEDEAKDKFGFVGIAKQLAPPIIEAAKGEGMVIGLEGRWGSGKTSLLNFLRAELQASKKSGIHTITIAPWLNGDTSSLVLSLLEPMAAVLKQKEDELAESYGEGQSATKERVAEVGRLLRAYGPKTARRIASLANVAGYVLPGAQAIGGALAASASAADEIFDVGPTPSELKQELAVKIQELNVGFIVILDDLDRLEPEQAVEVVRLVRSVADFPKVVYLMCYDREVLSEALKTGLKVSDGDLFLQKIVQLTFNIPLPEPFDLRTQFRNEAKAIYFEATGVDLDGAILHDLTYAVDREGMGLSTPREVKLALNSIRFVFSQVKDDVYFPDLCRLHLIKTTNYKLYKWLEIYLSVRSVLVTGDATVSEDEKTKMGEELKMLLPASGPGSVHSIWSLARFIPGVVDTEKVSERVFNAINSSAISEAVRLKRLGSPLHYRFYFALTGPKTVMPDEDFNAILELARNDIDQLESRLAAETMKRRDSGRTWFEHVLDRLDDDCISSLDESQLSGILHALSGMMDIAMKEDGEVRSFALSLDGIANIVAKRCLVRLRELNPEKQANTVRSMAQDGKAINWLVGKFFRSQLFNHGKVGERAERPEQWEISEDLLDDIIEILRKRLSEQDIKNLIPNLPNVSAYLYGWMNLTDDDQAKNWVQEYSESDEGFLDILNHLRGWAMSDKVYYPLSEKTVSSFLDWNEVKTRLDGMQLEHHHHHH
- soluble on expression in E. coli: not soluble

Sequence: PEKPAKTQKTSLDEALQWRDSLDKLLQNNYGLASFKSFLKSEFSEENLEFWIACEDYKKIKSPAKMAEKAKQIYEEFIQTEAPKEVNIDHFTKDITMKNLVEPSLSSFDMAQKRIHALMEKDSLPRFVRSEFYQELI
- soluble on expression in E. coli: soluble

Sequence: MKFGKTIAVVLASSVLLAGCTTDKKEIKAYLKQVDKIKDDEEPIKTVGKKIAELDEKKKKLTEDVNSKDTAVRGKAVKDLIKNADDRLKEFEKEEDAIKKSEQDFKKAKSHVDNIDNDVKRKEVKQLDDVLKEKYKLHSDYAKAYKKAVNSEKTLFKYLNQNDATQQGVNEKSKAIEQNYKKLKEVSDKYTKVLNKVGKEKQDVDQFK
- soluble on expression in E. coli: soluble

Sequence: MSLISLQSDQLLEATVGQFMIEADKVAHVQVGNNLEHALLVLTKTGYTAIPVLDPSYRLHGLIGTNMIMNSIFGLERIEFEKLDQITVEEVMLTDIPRLHINDPIMKGFGMVINNGFVCVENDEQVFEGIFTRRVVLKELNKHIRSLNKEGGSHHHHHH
- soluble on expression in E. coli: soluble

Sequence: MNHKVHHHHHHIEGRHMDEYKQVDVGKDGMVATAHPLASEIGADVLKKGGNAIDAAVAIQFALNVTEPMMSGIGGGGFMMVYDGKTKDTTIIDSRERAPAGATPDMFLDENGKAIPFSERVTKGTAVGVPGTLKGLEEALDKWGTRSMKQLITPSIKLAEKGFPIDSVLAEAISDYQEKLSRTAAKDVFLPNGEPLKEGDTLIQKDLAKTFKLIRSKGTDAFYKGKFAKTLSDTVQDFGGSMTEKDLENYDITIDEPIWGDYQGYQIATTPPPSSGGIFLLQMLKILDHFNLSQYDVRSWEKYQLLAETMHLSYADRASYAGDPEFVNVPLKGLLHPDYIKERQQLINLDQVNKKPKAGDPWKYQEGSANYKQVEQPKDKVEGQ
- soluble on expression in E. coli: soluble

Sequence: SGALWDVPSPAATQKATLSEGVYRIMQRGLFGKTQVGVGIHMEGVFHTMWHVTRGSVICHETGRLEPSWADVRNDMISYGGGWRLGDKWDKEEDVQVLAIEPGKNPKHVQTKPGLFKTLTGEIGAVTLDFKPGTSGSPIINKKGKVIGLYGNGVVTKSGDYVSAITQAERIGEGPDYEVDEDIFRKKRLTIMDLHPGAGKTKRILPSIVREALKRRLRTLILAPTRVVAAEMEEALRGLPIRYQTPAVKSDHTGREIVDLMCHATFTTRLLSSTRVPNYNLIVMDEAHFTDPCSVAARGYISTRVEMGEAAAIFMTATPPGSTDPFPQSNSPIEDIEREIPERSWNTGFDWITDYQGKTVWFVPSIKAGNDIANCLRKSGKRVIQLSRKTFDTEYPKTKLTDWDFVVTTDISEMGANFRAGRVIDPRRCLKPVILTDGPERVILAGPIPVTPASAAQRRGRIGRNPAQEDDQYVFSGDPLKNDEDHAHWTEAKMLLDNIYTPEGIIPTLFGPEREKTQAIDGEFRLRGEQRKTFVELMRRGDLPVWLSYKVASAGISYKDREWCFTGERNNQILEENMEVEIWTREGEKKKLRPKWLDARVYADPMALKDFKEFASGRK
- soluble on expression in E. coli: soluble

Sequence: GPGSMLVSYLRLQADRRTRHHMMVDGQINPREWFNWHPKEYQPWYFDRHKFLYEQRQYAQFHHLLCHQVYLKDMLHLMRYPEPYTHIIDCRTSTQKMHRWVPHSLWLPRDEVEYALQLSADEFLDMYGFRKPDKSDDVILLSHNGIYSEQAGWEWKKQFFQHVYNYRGGTNELFGESYSDMNVSDVLSPWKGPFPQSGVFVDKWSKRKVLTRTGPFDRQYEMQDFALPDLELEKARHPEEGPRQNMPFGLQ
- soluble on expression in E. coli: not soluble

Sequence: MAHHHHHHMENINRVNKYDNPNEAIKNMVDKIINKKEMMKYFLDAQDIFEYHDVGKKGEVDITLFPKMARQLKQVYDIRDINNFKKEMKIKKIYKMDLQLFFTLLKRKILYSINNSNNNENDNSSFRQHYDILDMKKKQLLDVDELRTYLGLMGDKINPDDFNILLRYNLINNHRINKDDIVLDENKEIKNISFNAYVDMLTCYKYI
- soluble on expression in E. coli: not soluble

Sequence: AHHHHHHGSELFFITSNDGKVREAKKFLEPLGINVIKKPLEYPEIQADTLEDVVVFGLNWLKDKVDKPFIIEDSGLFIEALNGFPGVYSAYVYKTIGLDGILKLMEGIENRKAYFKSVIGFYDGEIHLFVGEVRGRISNEKRGLHGFGYDPIFVPDGFDKTFAEMSTEEKNSVSHRGKALKEFYRWMKENLKK
- soluble on expression in E. coli: soluble

Sequence: MGSDKIHHHHHHMGLNAYIQGFNSLESIDRAPGYFKYHHHSVADHCFRTAELAQMMGDIEEVHGNKKINWKALYEKSLNHDYTERFIGDIKTPVKYATPQLRKMIGDVEETMTTKFIKEEIPKEFQEIYTRRLSEGKDDTLEGKILSVCDKLDLLYEAYGEIELGNPNPVYMQMFKESLETIKKFDDLVCVQYFIKKILPDLFKGDFAGKDKMQRIAFSILLLGDDE
- soluble on expression in E. coli: not soluble

Sequence: QTSIPTIFVGGDYARAFSTDGFVHRLTAAHLMTKGLVVHVSHAGHVTVQQFGPLKNNPTIQVIFADNHHAKRQARQFATVMQGLAKRYHVTRYNAVGHSSGGNIIFDYLTAQVPQRAQINKFVTIGSTYPGLTTQQLNRLPRSLPILNIAGHVWHTSGDGGVNLQAVLKFSHQLLAAGWSPKTQIIHGSPLTASHSMLHINPQVDLLIIQFLYGN
- soluble on expression in E. coli: not soluble

Sequence: MKKVSIIIPFKGQTEAELMLPLSSIYNQIGVDLSQLDIHLVNDGGKTIDLSKFDVLADRLEIHYHEIPNGGPGVARQYGIDNSISEYIMFIDADDVLYYVGALWPFYNASNQGHQMIRASYWEQIAGNPYTYTVHGNGDRKAAYGKWYKRSYIEMLGLRFMPDLPIYEDTYFVGLACELATDTCFLEEKVYMWLANPNSITRTVENKFNYQAHIYARENRYWFEMIRKWKPECLVTDFENYLTNMYLKSQKYPPVDEKAWWEEQHKLITSVSDIFSGWTQELQKQVELEHHHHHH
- soluble on expression in E. coli: not soluble
